According to patent US20250000946A1 (WUXI BIOLOGICS IRELAND, published 2025):

T1: Human IL-2Rα/β/γ complex (high affinity IL-2 receptor) (human, UniProt P01589 22-272; P14784 27-551; P31785 23-369)
T1 construct: whole, on cells
T1 sequence (looked up) 1: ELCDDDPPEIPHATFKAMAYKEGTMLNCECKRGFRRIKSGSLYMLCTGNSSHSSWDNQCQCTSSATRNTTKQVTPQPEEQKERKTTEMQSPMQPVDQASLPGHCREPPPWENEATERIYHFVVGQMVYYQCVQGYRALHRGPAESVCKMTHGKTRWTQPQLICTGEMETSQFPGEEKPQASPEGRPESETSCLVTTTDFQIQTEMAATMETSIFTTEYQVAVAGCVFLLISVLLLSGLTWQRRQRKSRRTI
T1 sequence (looked up) 2: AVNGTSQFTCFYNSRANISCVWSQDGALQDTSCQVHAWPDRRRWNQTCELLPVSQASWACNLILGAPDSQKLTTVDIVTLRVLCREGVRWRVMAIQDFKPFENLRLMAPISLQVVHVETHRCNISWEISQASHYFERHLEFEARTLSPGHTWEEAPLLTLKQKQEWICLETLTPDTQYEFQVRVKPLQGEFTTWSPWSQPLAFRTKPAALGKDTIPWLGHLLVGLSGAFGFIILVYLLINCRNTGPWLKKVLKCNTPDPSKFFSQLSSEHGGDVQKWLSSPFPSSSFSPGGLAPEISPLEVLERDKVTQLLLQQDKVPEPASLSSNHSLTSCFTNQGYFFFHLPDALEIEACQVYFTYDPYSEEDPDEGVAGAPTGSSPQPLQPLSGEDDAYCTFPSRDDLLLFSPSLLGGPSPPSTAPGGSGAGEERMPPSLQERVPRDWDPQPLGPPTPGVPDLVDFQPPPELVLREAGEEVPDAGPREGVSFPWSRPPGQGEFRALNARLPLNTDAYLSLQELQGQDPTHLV
T1 sequence (looked up) 3: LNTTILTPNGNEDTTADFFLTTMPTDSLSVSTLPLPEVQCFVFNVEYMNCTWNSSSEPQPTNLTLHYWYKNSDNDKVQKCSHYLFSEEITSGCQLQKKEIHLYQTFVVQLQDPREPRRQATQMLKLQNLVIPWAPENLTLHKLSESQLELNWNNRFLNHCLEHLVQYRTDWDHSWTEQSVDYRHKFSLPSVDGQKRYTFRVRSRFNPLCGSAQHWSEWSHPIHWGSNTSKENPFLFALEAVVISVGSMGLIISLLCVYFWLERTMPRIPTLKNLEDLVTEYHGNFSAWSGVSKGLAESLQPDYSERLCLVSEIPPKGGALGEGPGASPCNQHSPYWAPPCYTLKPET

T2: Human IL-2Rβ/γ (intermediate affinity IL-2 receptor) (human, UniProt P14784 27-551; P31785 23-369)
T2 sequence (looked up) 1: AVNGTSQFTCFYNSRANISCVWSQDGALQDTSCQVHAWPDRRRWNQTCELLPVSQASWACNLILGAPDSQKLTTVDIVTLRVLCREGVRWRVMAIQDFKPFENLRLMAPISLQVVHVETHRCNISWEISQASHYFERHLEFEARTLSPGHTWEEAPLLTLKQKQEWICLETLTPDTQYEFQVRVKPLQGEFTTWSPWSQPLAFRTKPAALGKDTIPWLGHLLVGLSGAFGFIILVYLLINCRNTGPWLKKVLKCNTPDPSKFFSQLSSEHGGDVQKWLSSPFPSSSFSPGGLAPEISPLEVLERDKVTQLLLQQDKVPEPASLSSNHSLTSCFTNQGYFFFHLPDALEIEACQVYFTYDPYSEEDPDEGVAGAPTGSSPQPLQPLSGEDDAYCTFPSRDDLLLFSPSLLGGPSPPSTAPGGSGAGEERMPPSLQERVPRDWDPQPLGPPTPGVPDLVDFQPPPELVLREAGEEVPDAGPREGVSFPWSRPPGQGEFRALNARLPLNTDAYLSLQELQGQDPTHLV
T2 sequence (looked up) 2: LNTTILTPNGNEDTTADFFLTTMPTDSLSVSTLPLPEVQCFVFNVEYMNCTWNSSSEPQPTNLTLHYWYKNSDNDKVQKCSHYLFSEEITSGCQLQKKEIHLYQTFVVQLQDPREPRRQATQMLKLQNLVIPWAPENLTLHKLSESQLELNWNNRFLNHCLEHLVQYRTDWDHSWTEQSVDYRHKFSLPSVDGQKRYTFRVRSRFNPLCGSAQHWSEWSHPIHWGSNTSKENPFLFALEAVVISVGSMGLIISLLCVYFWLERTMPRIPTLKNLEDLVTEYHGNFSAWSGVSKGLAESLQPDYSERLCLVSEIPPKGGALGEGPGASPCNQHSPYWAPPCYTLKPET


What was measured:
[1] = biological target: T1, Human IL-2Rα/β/γ complex (high affinity …); test: FACS, MJ20 cells
Protocol: (§1) Human cutaneous T cell lymphoma HH cells, malignant non-Hodgkin's lymphoma NK92 cells and cutaneous T cell lymphoma MJ20 cells were used for binding assay. They both constitutively express IL-2Rβ (CD122) and […] (CD132), and NK92 and MJ20 also expresses IL-2Rα (CD25). HH, NK92 and MJ20 cells were cultured following ATCC guidance, then transferred to a 96-plate for binding analysis. Cells were incubated with IL-2/Fc fusion proteins at the indicated concentrations for 30 min at 4° C. to avoid internalization. Binding was detected by 2nd antibody of PE-anti-human Fc at 4° C. for another 30 min. The median fluorescence intensity (MFI) on HH and NK92 cells was measured using FACS.

[2] = biological target: T1, Human IL-2Rα/β/γ complex (high affinity …); test: FACS, MJ20 cells; EC50 fold vs T2U0.E44-1
Protocol: as §1

[3] = biological target: T1, Human IL-2Rα/β/γ complex (high affinity …); test: cell-based or functional assay
[4] = biological target: T2, Human IL-2Rβ/γ (intermediate affinity …); test: cell-based or functional assay
[5] = biological target: T2, Human IL-2Rβ/γ (intermediate affinity …); test: FACS, HH cells; EC50 fold vs T2U0.E44-1
Summary of the method: (§2)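 HH (IL-2Rβ/γ), MJ20 and NK92 (IL-2Rα/β/γ) cells incubated with IL-2/Fc fusion proteins at indicated concentrations, 30 min at 4° C to avoid internalization. Bound protein detected with PE-anti-human Fc, 30 min at 4° C; median fluorescence intensity read by FACS.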

[6] = biological target: T2, Human IL-2Rβ/γ (intermediate affinity …); test: FACS, HH cells
Summary of the method: as §2

Binder | EC50 [1] [nM] | Affinity reduction [2] [fold] | Potency in human Treg EC50 [3] [nM] | Potency reduction (Treg) [3] [fold] | Potency in human CD8+ T EC50 [4] [nM] | Potency reduction (CD8+ T) [4] [fold] | Affinity reduction [5] [fold] | EC50 [6] [nM]
W3XX115-T2U0.E44-35.uIgG4V322 (Fc fusion, IL-2 del STLT and S127T; E44 format, IgG4 FALA) APTSSSTKKTQLQLEHLLLDLQMILNGINNYKNPKLTRMLTFKFYMPKKATELKHLQCLEEELKPLEEVLNLAQSKNFHLRPRDLISNINVIVLELKGSETTFMCEYADETATIVEFLNRWITFCQTIIESKYGPPCPPCPAPEAAGGPSVFLFPPKPKDTLMISRTPEVTCVVVDVSQEDPEVQFNWYVDGVEVHNAKTKPREEQFNSTYRVVSVLTVLHQDWLNGKEYKCKVSNKGLPSSIEKTISKAKGQPREPQVYTLPPCQEEMTKNQVSLWCLVKGFYPSDIAVEWESNGQPENNYKTTPPVLDSDGSFFLYSRLTVDKSRWQEGNVFSCSVMHEALHNHYTQKSLSLSLG heavy: EIQLQQSGPELVKPGASVKVSCKASGYSFTDYNMYWVKQSHGESLEWIGYIDPYNGGTRYNQKFKGKATLTVDKSSSTAFMHLNSLTSEDSAVYYCARNGHWDGAWFAYWGQGTLVTVSAASTKGPSVFPLAPCSRSTSESTAALGCLVKDYFPEPVTVSWNSGALTSGVHTFPAVLQSSGLYSLSSVVTVPSSSLGTKTYTCNVDHKPSNTKVDKRVESKYGPPCPPCPAPEAAGGPSVFLFPPKPKDTLMISRTPEVTCVVVDVSQEDPEVQFNWYVDGVEVHNAKTKPREEQFNSTYRVVSVLTVLHQDWLNGKEYKCKVSNKGLPSSIEKTISKAKGQPREPQVCTLPPSQEEMTKNQVSLSCAVKGFYPSDIAVEWESNGQPENNYKTTPPVLDSDGSFFLVSRLTVDKSRWQEGNVFSCSVMHEALHNHYTQKSLSLSLG light: DIQMNQSPSSLSASLGDTITITCHASQNINVWLSWYQQKPGNIPKLLIYKASNLHTGVPSRFSGSRSGTGFTLTISSLQPEDIATYYCHQGQSYPFTFGSGTKLEIKRTVAAPSVFIFPPSDEQLKSGTASVVCLLNNFYPREAKVQWKVDNALQSGNSQESVTEQDSKDSTYSLSSTLTLSKADYEKHKVYACEVTHQGLSSPVTKSFNRGEC | 92.8 | 2.2 | 0.073 | 37.1 | 10.7 | 1.1 | 10.9 | 576
W3XX115-T2U0.E44-39.uIgG4V322 (Fc fusion, IL-2 del STLT and I128A; E44 format, IgG4 FALA) APTSSSTKKTQLQLEHLLLDLQMILNGINNYKNPKLTRMLTFKFYMPKKATELKHLQCLEEELKPLEEVLNLAQSKNFHLRPRDLISNINVIVLELKGSETTFMCEYADETATIVEFLNRWITFCQSAIESKYGPPCPPCPAPEAAGGPSVFLFPPKPKDTLMISRTPEVTCVVVDVSQEDPEVQFNWYVDGVEVHNAKTKPREEQFNSTYRVVSVLTVLHQDWLNGKEYKCKVSNKGLPSSIEKTISKAKGQPREPQVYTLPPCQEEMTKNQVSLWCLVKGFYPSDIAVEWESNGQPENNYKTTPPVLDSDGSFFLYSRLTVDKSRWQEGNVFSCSVMHEALHNHYTQKSLSLSLG heavy: EIQLQQSGPELVKPGASVKVSCKASGYSFTDYNMYWVKQSHGESLEWIGYIDPYNGGTRYNQKFKGKATLTVDKSSSTAFMHLNSLTSEDSAVYYCARNGHWDGAWFAYWGQGTLVTVSAASTKGPSVFPLAPCSRSTSESTAALGCLVKDYFPEPVTVSWNSGALTSGVHTFPAVLQSSGLYSLSSVVTVPSSSLGTKTYTCNVDHKPSNTKVDKRVESKYGPPCPPCPAPEAAGGPSVFLFPPKPKDTLMISRTPEVTCVVVDVSQEDPEVQFNWYVDGVEVHNAKTKPREEQFNSTYRVVSVLTVLHQDWLNGKEYKCKVSNKGLPSSIEKTISKAKGQPREPQVCTLPPSQEEMTKNQVSLSCAVKGFYPSDIAVEWESNGQPENNYKTTPPVLDSDGSFFLVSRLTVDKSRWQEGNVFSCSVMHEALHNHYTQKSLSLSLG light: DIQMNQSPSSLSASLGDTITITCHASQNINVWLSWYQQKPGNIPKLLIYKASNLHTGVPSRFSGSRSGTGFTLTISSLQPEDIATYYCHQGQSYPFTFGSGTKLEIKRTVAAPSVFIFPPSDEQLKSGTASVVCLLNNFYPREAKVQWKVDNALQSGNSQESVTEQDSKDSTYSLSSTLTLSKADYEKHKVYACEVTHQGLSSPVTKSFNRGEC | 74200 | 1770 | 2 | 1020 | 99.9 | 9.8 | 6.8 | 355
W3XX115-T2U0.E44-36.uIgG4V322 (Fc fusion, IL-2 del STLT and S127D; E44 format, IgG4 FALA) APTSSSTKKTQLQLEHLLLDLQMILNGINNYKNPKLTRMLTFKFYMPKKATELKHLQCLEEELKPLEEVLNLAQSKNFHLRPRDLISNINVIVLELKGSETTFMCEYADETATIVEFLNRWITFCQDIIESKYGPPCPPCPAPEAAGGPSVFLFPPKPKDTLMISRTPEVTCVVVDVSQEDPEVQFNWYVDGVEVHNAKTKPREEQFNSTYRVVSVLTVLHQDWLNGKEYKCKVSNKGLPSSIEKTISKAKGQPREPQVYTLPPCQEEMTKNQVSLWCLVKGFYPSDIAVEWESNGQPENNYKTTPPVLDSDGSFFLYSRLTVDKSRWQEGNVFSCSVMHEALHNHYTQKSLSLSLG heavy: EIQLQQSGPELVKPGASVKVSCKASGYSFTDYNMYWVKQSHGESLEWIGYIDPYNGGTRYNQKFKGKATLTVDKSSSTAFMHLNSLTSEDSAVYYCARNGHWDGAWFAYWGQGTLVTVSAASTKGPSVFPLAPCSRSTSESTAALGCLVKDYFPEPVTVSWNSGALTSGVHTFPAVLQSSGLYSLSSVVTVPSSSLGTKTYTCNVDHKPSNTKVDKRVESKYGPPCPPCPAPEAAGGPSVFLFPPKPKDTLMISRTPEVTCVVVDVSQEDPEVQFNWYVDGVEVHNAKTKPREEQFNSTYRVVSVLTVLHQDWLNGKEYKCKVSNKGLPSSIEKTISKAKGQPREPQVCTLPPSQEEMTKNQVSLSCAVKGFYPSDIAVEWESNGQPENNYKTTPPVLDSDGSFFLVSRLTVDKSRWQEGNVFSCSVMHEALHNHYTQKSLSLSLG light: DIQMNQSPSSLSASLGDTITITCHASQNINVWLSWYQQKPGNIPKLLIYKASNLHTGVPSRFSGSRSGTGFTLTISSLQPEDIATYYCHQGQSYPFTFGSGTKLEIKRTVAAPSVFIFPPSDEQLKSGTASVVCLLNNFYPREAKVQWKVDNALQSGNSQESVTEQDSKDSTYSLSSTLTLSKADYEKHKVYACEVTHQGLSSPVTKSFNRGEC | 98.5 | 2.4 | 0.1 | 52.2 | ~12.2 |  | 25.1 | 1320
